In this assay the target is T1, His-NLRP3 (human, UniProt Q96P20 1-1036).
T1 construct: human NLRP3 cloned into pET28a; The methods name only His-NLRP3; also called His-NLRP3-Flag; pET28a-His-NLRP3; source: E. coli (pET28a), IPTG-induced; called purified in the legend
Nature of the assay: pull-down; GST or GST-VDR with His-NLRP3, pulled down on Glutathione MagBeads, immunoblot; incubation 2 h or overnight at 4 °C on a rotator (methods). Conditions: both partners purified.

T1 sequence (Q96P20 whole entry): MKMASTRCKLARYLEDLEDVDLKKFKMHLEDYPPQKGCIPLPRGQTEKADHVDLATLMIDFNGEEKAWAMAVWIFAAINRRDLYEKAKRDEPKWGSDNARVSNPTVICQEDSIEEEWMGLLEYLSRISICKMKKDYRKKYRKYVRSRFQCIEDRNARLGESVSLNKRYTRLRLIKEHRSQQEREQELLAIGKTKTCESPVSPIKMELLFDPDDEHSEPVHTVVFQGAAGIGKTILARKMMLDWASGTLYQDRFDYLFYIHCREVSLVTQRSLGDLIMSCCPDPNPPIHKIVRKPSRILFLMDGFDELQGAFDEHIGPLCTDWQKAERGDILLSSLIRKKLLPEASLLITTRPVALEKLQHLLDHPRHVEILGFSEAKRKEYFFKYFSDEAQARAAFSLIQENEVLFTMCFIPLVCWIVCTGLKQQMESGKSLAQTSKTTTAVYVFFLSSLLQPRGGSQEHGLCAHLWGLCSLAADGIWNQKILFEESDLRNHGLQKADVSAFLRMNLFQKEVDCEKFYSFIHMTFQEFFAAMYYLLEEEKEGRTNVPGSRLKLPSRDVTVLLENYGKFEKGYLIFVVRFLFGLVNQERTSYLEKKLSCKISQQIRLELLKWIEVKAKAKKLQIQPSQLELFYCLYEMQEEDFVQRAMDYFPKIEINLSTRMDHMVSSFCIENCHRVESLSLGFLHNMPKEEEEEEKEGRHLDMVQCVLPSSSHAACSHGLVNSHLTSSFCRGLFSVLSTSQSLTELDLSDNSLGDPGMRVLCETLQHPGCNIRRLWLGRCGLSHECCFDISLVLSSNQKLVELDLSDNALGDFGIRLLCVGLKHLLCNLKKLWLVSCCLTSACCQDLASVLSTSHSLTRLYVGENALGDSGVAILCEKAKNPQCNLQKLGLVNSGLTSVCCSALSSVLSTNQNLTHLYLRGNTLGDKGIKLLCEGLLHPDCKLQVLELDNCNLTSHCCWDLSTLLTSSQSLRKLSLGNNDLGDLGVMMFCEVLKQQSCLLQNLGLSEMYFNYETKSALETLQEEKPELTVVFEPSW

B1: GST-human VDR (natural protein, UniProt P11473 1-427, looked up)
chain: MEAMAASTSLPDPGDFDRNVPRICGVCGDRATGFHFNAMTCEGCKGFFRRSMKRKALFTCPFNGDCRITKDNRRHCQACRLKRCVDIGMMKEFILTDEEVQRKREMILKRKEEEALKDSLRPKLSEEQQRIIAILLDAHHKTYDPTYSDFCQFRPPVRVNDGGGSHPSRPNSRHTPSFSGDSSSSCSDHCITSSDMMDSSSFSNLDLSEEDSDDPSVTLELSQLSMLPHLADLVSYSIQKVIGFAKMIPGFRDLTSEDQIVLLKSSAIEVIMLRSNESFTMDDMSWTCGNQDYKYRVSDVTKAGHSLELIEPLIKFQVGLKKLNLHEEEHVLLMAICIVSPDRPGVQDAALIEAIQDRLSNTLQTYIRCRHPPPGSHLLYAKMIQKLADLRSLNEEHSKQYRCLSFQPECSMKLTPLVLEVFGNEIS
notes: human vitamin D receptor in pGEX-6P1; also called GST-VDR; pGEX6p-1-GST-VDR; source: E. coli BL21(DE3), IPTG-induced; called purified in the legend
Turning to B1, the binding result is given as “binds”.
